Assay results taken from patent US11471538B2, “Methods and pharmaceutical compositions for the treatment of cancers associated with activation of the MAPK pathway” (INSERM (Institut National de la Santé et de la Recherche …, priority 2017, dated 2022).

Columns and labels:
SLITRK6 mRNA = SLITRK6 mRNA expression by Q-PCR in BRAF-mutant melanoma cells under MAPK inhibitor treatment; assay type: cell-based; details: PLX4032 1 μM alone or with AZD6244 0.1 μM; A375, Lu1205, WM266-4, WM983B, WM35, WM115 cells; 72 h for WM35 and WM115
Experimental: FIG. 1. SLITRK6 mRNA expression is induced under MAPK inhibitor treatment in BRAF-mutant melanoma cells. A) A375, Lu1205, WM266-4 and WM983B cell lines were treated with a BRAF inhibitor (PLX4032) at 1 μM alone or in combination with a 0.1 μM MEK inhibitor (AZD6244). mRNA fold increase relative to the DMSO control is determined by Q-PCR. The results are presented as the mean±SD of the average of 3 independent experiments. *** p<0.001; T-test. B) BRAF-mutant melanoma cells lines WM35 and WM115 were treated with a BRAF inhibitor (PLX4032, 1 μM) alone or in combination with a MEK inhibitor (AZD6244, 0.1 μM) for 72 h and SLITRK6 mRNA was analyzed by RT-qPCR. Data shown are the means±standard deviation of 3 independent experiments. ** p<0.01; * p<0.05; t-test.

SLITRK6 [1] = assay: Staining of A375 cells for SLITRK6: antibody binding at the membrane; details: si-Ctl or si-SLITRK6, PLX4032 1 μM alone or with AZD6244 0.1 μM for 48 h
Experimental: FIG. 5. […] A375 cells were transfected with siRNA control (si-Ctl) or targeting SLITRK6 (si-SLITRK6) before treatment with PLX4032 (1 μM) alone or in combination with AZD6244 (0.1 μM) for 48 h. Cells were then stained for SLITRK6 (green) and DNA was counterstained with DAPI (blue).

SLITRK6 [2] = assay: Staining of A375 cells for SLITRK6: antibody internalization; assay type: cell-based; details: si-Ctl or si-SLITRK6, PLX4032 1 μM alone or with AZD6244 0.1 μM for 48 h
Experimental: FIG. 6. […] A375 cells were transfected with siRNA control (si-Ctl) or targeting SLITRK6 (si-SLITRK6) before treatment with PLX4032 (1 μM) alone or in combination with AZD6244 (0.1 μM) for 48 h. Cells were then stained for SLITRK6 (green) and DNA was counterstained with DAPI (blue).

[3] = listed as antibody against SLITRK6

Molecule	SLITRK6 mRNA expression (fold increase relative to the DMSO control) (SLITRK6 mRNA)	binding of the antibody to SLITRK6 at the cell membrane (SLITRK6 [1])	binding of the antibody to SLITRK6 at the cell membrane (SLITRK6 [1]; [3])	internalization of the antibody and its target (SLITRK6 [2])	internalization of the antibody and its target (SLITRK6 [2]; [3])
CCCS(=O)(=O)Nc1ccc(F)c(C(=O)c2c[nH]c3ncc(-c4ccc(Cl)cc4)cc23)c1F [PLX4032]	induced	–	–	–	–
Hal5-10acl2: antibody directed against SLITRK6, produced by CHO cell ATCC PTA-13102; VH SEQ ID NO: 1, VL SEQ ID NO: 2 (antibody, V domains shown, Synthetic heavy chain variable region of Hal5-10acl2; Synthetic light chain variable region of Hal5-10acl2) VH: QVQLVESGGGVVQPGRSLRLSCAASGFTFSSYGMHWVRQAPGKGLEWVAVIWYDGSNQYYADSVKGRFTISRDNSKNTLFLQMHSLRAEDTAVYYCARGLTSGRYGMDVWGQGTTVTVSS VL: DIVMTQSPLSLPVTPGEPASISCRSSQSLLLSHGFNYLDWYLQKPGQSPQLLIYLGSSRASGVPDRFSGSGSGTDFTLKISRVEAEDVGLYYCMQPLQIPWTFGQGTKVEIKR	–	binds to melanoma cells only when the cells are treated with a MAMPK inhibitor	binds its target specifically at the membrane only after MAPK inhibitor treatment	internalizes the tumor cells only after a treatment with a MAPK inhibitor	internalizes its target specifically only after MAPKi treatment
